Source: paper PMC2568859, “Hybrids of the bHLH and bZIP Protein Motifs Display Different DNA-Binding Activities In Vivo vs. In Vitro”

B1: nonspecific 24-mer duplex (dsDNA)
DNA 1: TGCAGGAATTCCAAGGTGAAGGTT
DNA 2: AACCTTCACCTTGGAATTCCTGCA
B2: E-box 24-mer duplex (dsDNA)
DNA 1: TGCAGGAATCACGTGATGAAGGTT
DNA 2: AACCTTCATCACGTGATTCCTGCA

What was measured:
ArntbHLH [1] = target: T1, ArntbHLH (Homo sapiens (isoform variant 3), UniProt P27540-2 65-130); test: fluorescence anisotropy; up to 1 uM monomeric protein; data not shown; Buffer B: 100 mM Tris pH 7.4, 150 mM NaCl, 1 mM EDTA, 200 mM guanidine-HCl, 20% glycerol, 0.1 mg/mL acetylated BSA, 100 uM bp calf thymus DNA; 1 nM duplex; overnight 4 C then 22 C. Buffer C: 100 mM Tris pH 7.4, 150 mM NaCl, 1 mM EDTA, 1.0 ug/mL poly dI-dC. Buffer A: phosphate pH 7.4, 150 mM NaCl, 2.7 mM KCl, 1 mM EDTA, 800 mM urea, 20% glycerol, …; settings: protein: recombinant; chain copies: 2; label: 5' 6-FAM on one strand; 24-mer duplex
T1 sequence (P27540 other isoform, or with tags, fused parts or gaps): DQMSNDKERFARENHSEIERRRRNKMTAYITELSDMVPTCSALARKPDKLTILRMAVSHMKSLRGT

ArntbHLH-C/EBP [2] = target: T2, ArntbHLH-C/EBP (Homo sapiens (Arnt isoform variant 3) / …, UniProt P27540-2 65-130+=RIR+P05554:317-345, internal_change); test: as above; settings: protein: recombinant; (pET-28A(+), TALON purified); chain copies: 2; label: 5' 6-FAM on one strand; 24-mer duplex
T2 sequence (P27540 other isoform, or with tags, fused parts or gaps): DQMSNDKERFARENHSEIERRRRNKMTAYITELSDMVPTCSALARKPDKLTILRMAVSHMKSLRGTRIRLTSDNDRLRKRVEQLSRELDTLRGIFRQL

ArntbHLH [3] = target: T1, ArntbHLH; test: fluorescence anisotropy; Buffer C (no additives, 1.0 ug/mL poly dI-dC); single isotherm, plateau not reached; Hill ~2; Buffer B: 100 mM Tris pH 7.4, 150 mM NaCl, 1 mM EDTA, 200 mM guanidine-HCl, 20% glycerol, 0.1 mg/mL acetylated BSA, 100 uM bp calf thymus DNA; 1 nM duplex; overnight 4 C then 22 C. Buffer C: 100 mM Tris pH 7.4, 150 mM NaCl, 1 mM EDTA, 1.0 ug/mL poly dI-dC. Buffer A: phosphate pH 7.4, 150 mM NaCl, …; settings: protein: recombinant; chain copies: 2; label: 5' 6-FAM on one strand; 24-mer duplex
ArntbHLH-C/EBP [4] = target: T2, ArntbHLH-C/EBP; test: as above; settings: protein: recombinant; (pET-28A(+), TALON purified); chain copies: 2; label: 5' 6-FAM on one strand; 24-mer duplex

Row | Binder | binding result (ArntbHLH [1]) | binding result (ArntbHLH-C/EBP [2]) | Kd (ArntbHLH [3]) [nM] | Kd (ArntbHLH-C/EBP [4]) [nM]
1 | B1 | no binding | no binding |  | 
2 | B2 |  |  | ~350 | ~350
